Here are results for two substances from article PMC12375108.

A value given as a limit tells only on which side of the number the result lay.

Experiment [1] deals with GST-tagged E. coli hinT H101N (E. coli) (UniProt P0ACE7). Nature of the experiment: BLI; GST-hinT (90 nM) immobilised on anti-GST biosensors; sucA-AMP 500 to 7.81 nM, unmodified sucA at 500 nM; 10 mM Tris pH 8, 150 mM NaCl, 0.1% Triton X-100; KD from steady-state responses, one site.
The target in experiment [2] is GST-tagged H. sapiens hinT H112N (human) (UniProt P49773). Described as above.
In experiment [3] the target is AMPylated GlnA (glutamine synthetase), recombinant (E. coli) (UniProt P0A9C5). Nature of the experiment: cryo-EM structure; GlnA (4.68 mg/ml) mixed with hinT (3.29 mg/ml), 1:3 molar ratio of monomers; 10 mM Tris pH 8, 150 mM NaCl, 2 mM DTT.

Sequence of GST-tagged H. sapiens hinT H112N (human) (P49773 whole entry H112N): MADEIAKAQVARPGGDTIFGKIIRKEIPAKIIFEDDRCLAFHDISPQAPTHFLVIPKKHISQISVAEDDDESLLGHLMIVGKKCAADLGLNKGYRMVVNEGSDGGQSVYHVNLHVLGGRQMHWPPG

For “AMPylated sucA (from UniProt P0AFG3 1-933) (enzyme)”, the results for the Kd in experiment [1] and in experiment [2] were 27 nM and 10 nM, respectively. On to “E. coli hinT H101N (untagged) (from UniProt P0ACE7 1-119) (enzyme)”, for which, in experiment [3], the stoichiometry N (hinT dimers per GlnA dodecamer) is under 6.
